Test [1] has as its target pKal catalytic domain Mutant 4 (human) (UniProt P03952). Kind of test: equilibrium Ki,app, fluorogenic substrate, tight binding fit.
Test [2] has the same target. The experiment in a line: equilibrium Ki,app, enzyme inhibition with fluorogenic substrate, tight binding fit.

Chain of pKal catalytic domain Mutant 4 (human) (P03952 391-638, change not shown): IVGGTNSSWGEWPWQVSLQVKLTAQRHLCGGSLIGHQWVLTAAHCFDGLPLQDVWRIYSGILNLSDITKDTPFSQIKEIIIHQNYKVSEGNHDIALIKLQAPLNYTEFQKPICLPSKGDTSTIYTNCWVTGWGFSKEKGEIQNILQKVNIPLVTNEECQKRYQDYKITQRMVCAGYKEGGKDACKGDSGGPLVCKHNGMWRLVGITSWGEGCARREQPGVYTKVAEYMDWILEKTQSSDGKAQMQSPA

B1: M35-G04 (antibody, V domains shown)
VH: EVQLLESGGGLVQPGGSLRLSCAASGFTFSYYHMSWVRQAPGKGLEWVSVISPSGGSTKYADSVKGRFTISRDNSKNTLYLQMNSLRAEDTAVYYCARGGSSDYAWGSYRRPYYFDYWGQGTLVTVSS
VL: DIQMTQSPATLSLSPGERATLSCRASQSVSSYLAWYQQKPGQAPRLLIYDASNRATGIPARFSGSGSGTDFTLTISSLEPEDFAVYYCQQRSNWPRGFTFGPGTKVDIK
Take B1: the Ki in test [1] and in test [2] was 0.8 nM each time.

B2: DX-2922 (antibody, V domains shown)
VH: EVQLLESGGGLVQPGGSLRLSCAASGFTFSHYLMTWVRQAPGKGLEWVSYISPSGGHTIYADSVKGRFTISRDNSKNTLYLQMNSLRAEDTAVYYCARVARGIAARSRTSYFDYWGQGTLVTVSS
VL: EIVLTQSPGTLSLSPGERATLSCRTSQFVNSNYLAWYQQKPGQAPRLLIYGASSRATGIPDRFSGSGSGTDFTLTISRLEPEDFAVYYCQQSSRTPWTFGQGTKVEIK
For B2, the Ki in test [1] and in test [2] was 0.25 nM in each case.

B3: X115-B07 (antibody, V domains shown)
VH: EVQLLESGGGLVQPGGSLRLSCAASGFTFSHYLMTWVRQAPGKGLEWVSYISPSGGHTIYADSVKGRFTISRDNSKNTLYLQMNSLRAEDTAVYYCAMVGQGIRGRSRTSYFAQWGQGTLVTVSS
VL: EIVLTQSPGTLSLSPGERATLSCRTSQFVNSNYLAWYQQKPGQAPRLLIYGASSRATGIPDRFSGSGSGTDFTLTISRLEPEDFAVYYCQQSSRTPWTFGQGTKVEIK
In the case of B3, the Ki in test [1] and in test [2] was 0.14 nM in each case.

B4: X115-A03 (antibody, V domains shown)
VH: EVQLLESGGGLVQPGGSLRLSCAASGFTFSHYIMMWVRQAPGKGLEWVSGIYSSGGITVYADSVKGRFTISRDNSKNTLYLQMNSLRAEDTAVYYCAWRRIGVPRRDSFDMWGQGTMVTVSS
VL: DIQMTQSPSTLSASVGDRVTITCRASQSISSWLAWYQQKPGKAPKLLIYKASTLESGVPSRFSGSGSGTEFTLTISSLQPDDFATYYCQQYNTYWTFGQGTKVEIK
B4: the Ki in test [1] and in test [2] was 0.13 nM in each case.

B5: X115-G04 (antibody, V domains shown)
VH: EVQLLESGGGLVQPGGSLRLSCAASGFTFSHYIMMWVRQAPGKGLEWVSGIYSSGGITVYADSVKGRFTISRDNSKNTLYLQMNSLRAEDTAVYYCAYRRTGVPRRDEFDIWGQGTMVTVSS
VL: DIQMTQSPSTLSASVGDRVTITCRASQSISSWLAWYQQKPGKAPKLLIYKASTLESGVPSRFSGSGSGTEFTLTISSLQPDDFATYYCQQYNTYWTFGQGTKVEIK
For the molecule B5, the Ki in test [1] and in test [2] was 0.3 nM in each case.

B6: X115-D01 (antibody, V domains shown)
VH: EVQLLESGGGLVQPGGSLRLSCAASGFTFSIYSMHWVRQAPGKGLEWVSSIYPSRGMTWYADSVKGRFTISRDNSKNTLYLQMNSLRAEDTAVYYCAYRRTGIPRRDAFDIWGQGTMVTVSS
VL: DIQMTQSPSTLSASVGDRVTITCRASQSISSWLAWYQQKPGKAPKLLIYKASTLESGVPSRFSGSGSGTEFTLTISSLQPDDFATYYCQQYNTYWTFGQGTKVEIK
Take B6: the Ki in test [1] and in test [2] was 0.12 nM throughout.

B7: X115-F02 (Fab, V domains shown)
VH: EVQLLESGGGLVQPGGSLRLSCAASGFTFSHYIMMWVRQAPGKGLEWVSGIYSSGGITVYADSVKGRFTISRDNSKNTLYLQMNSLRAEDTAVYYCAYRRIGVPRRDEFDIWGQGTMVTVSS
VL: DIQMTQSPSTLSASVGDRVTITCRASQSISSWLAWYQQKPGKAPKLLIYKASTLESGVPSRFSGSGSGTEFTLTISSLQPDDFATYYCQQYNTYWTFGQGTKVEIK
As to B7, the Ki in test [1] and in test [2] was 0.1 nM throughout.

B8: M6-D09 (antibody, V domains shown)
VH: EVQLLESGGGLVQPGGSLRLSCAASGFTFSFYYMVWVRQAPGKGLEWVSVIYPSGGITVYADSVKGRFTISRDNSKNTLYLQMNSLRAEDTAVYYCARDKWAVMPPYYYYAMDVWGQGTTVTVSS
VL: DIQMTQSPSSLSASVGDRVTITCRASQSIRNYLNWYQQKPGKAPNLLIYAASTLQSGVPARFSGSGSGTDFTLTISSLQPEDFATYYCQQLSGYPHTFGQGTKLEIK
B8 registered a Ki in test [1] of 2.9 nM.

B9: M06-D09 (antibody, V domains shown)
VH: EVQLLESGGGLVQPGGSLRLSCAASGFTFSFYYMVWVRQAPGKGLEWVSVIYPSGGITVYADSVKGRFTISRDNSKNTLYLQMNSLRAEDTAVYYCARDKWAVMPPYYYYAMDVWGQGTTVTVSS
VL: DIQMTQSPSSLSASVGDRVTITCRASQSIRNYLNWYQQKPGKAPNLLIYAASTLQSGVPARFSGSGSGTDFTLTISSLQPEDFATYYCQQLSGYPHTFGQGTKLEIK
As to B9, the Ki in test [2] turned out to be 2.9 nM.

B10: M145-D11 (Fab, V domains shown)
VH: EVQLLESGGGLVQPGGSLRLSCAASGFTFSHYRMSWVRQAPGKGLEWVSSIYPSGGRTVYADSVKGRFTISRDNSKNTLYLQMNSLRAEDTAVYYCAKDKFEWRLLFRGIGNDAFDIWGQGTMVTVSS
VL: QSVLTQPPSVSVSPGQTASITCSGDKLGDKYTSWYQQRPGQSPVLVIYQDIKRPSGIPERFSGSNSGNTATLTISGTQAMDEADYYCQAWDSPNARVFGSGTKVTVL
B10: the Ki in test [1] and in test [2] was 0.21 nM throughout.

B11: M29-D09 (Fab, V domains shown)
VH: EVQLLESGGGLVQPGGSLRLSCAASGFTFSWYTMVWVRQAPGKGLEWVSYIYPSGGATFYADSVKGRFTISRDNSKNTLYLQMNSLRAEDTAVYYCAMGSYDYIWGFYSDHWGQGTLVTVSS
VL: QSALTQPPTVSVSPGQTARITCSGNKLGDKYVAWYQQKPGQSPMLVIYQDTKRPSRVSERFSGSNSANTATLSISGTQALDEADYYCQAWDSSIVIFGGGTRLTVL
Take B11: the Ki in test [1] and in test [2] was 0.39 nM throughout.

The values above are taken from US20260184815A1.
